Stoichiometry N data for one substance are collected here from paper PMC4138882.

The target of this assay is 3ftt-wt, wild-type trimeric protein from which T3-08 was derived (PDB ID 3FTT), C-terminal (His)6 construct. Briefly: SEC. For orientation: SEC sorts molecules by how far they enter the pores of the column.

Chain of 3ftt-wt, wild-type trimeric protein from which T3-08 was derived (PDB ID 3FTT), C-terminal (His)6 construct (Q5HCZ5 whole entry): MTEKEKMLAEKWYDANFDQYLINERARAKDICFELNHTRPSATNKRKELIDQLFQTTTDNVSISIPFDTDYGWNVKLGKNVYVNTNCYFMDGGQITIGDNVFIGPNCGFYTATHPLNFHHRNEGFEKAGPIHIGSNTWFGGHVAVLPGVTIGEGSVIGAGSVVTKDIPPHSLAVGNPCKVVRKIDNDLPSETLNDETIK

The stoichiometry N is the number of molecules, sites or subunits per partner or assembly. Substance “3ftt-wt, wild-type trimeric protein from which T3-08 was derived (PDB ID 3FTT), C-terminal (His)6 construct (natural protein)” returned a stoichiometry N of 3 subunits.
